Laboratory results from US20220356265A1 (KEIO UNIVERSITY, published 2022).

Assays:
[1] = molecular target: T1, human glypican-1 (GPC-1) (human, UniProt P35052 24-530); test: statement opening Example 7; no assay named
T1 construct: whole, on cells; also called GPC-1 antigen
T1 sequence (looked up): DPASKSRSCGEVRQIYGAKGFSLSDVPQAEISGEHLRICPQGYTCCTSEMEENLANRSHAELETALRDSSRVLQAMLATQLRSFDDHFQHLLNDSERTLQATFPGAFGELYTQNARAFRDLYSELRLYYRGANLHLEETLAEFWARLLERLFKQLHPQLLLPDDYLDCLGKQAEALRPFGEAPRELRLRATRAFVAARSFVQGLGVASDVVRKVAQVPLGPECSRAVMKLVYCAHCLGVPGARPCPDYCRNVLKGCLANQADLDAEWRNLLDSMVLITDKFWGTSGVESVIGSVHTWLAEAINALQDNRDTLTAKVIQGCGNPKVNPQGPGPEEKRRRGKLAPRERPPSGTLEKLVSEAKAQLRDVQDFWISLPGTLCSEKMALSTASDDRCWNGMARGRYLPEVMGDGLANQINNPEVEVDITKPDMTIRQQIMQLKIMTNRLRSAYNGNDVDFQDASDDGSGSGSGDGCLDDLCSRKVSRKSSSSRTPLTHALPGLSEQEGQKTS

[2] = molecular target: T2, mouse GPC-1 (mouse, UniProt Q9QZF2 24-529); test: statement opening Example 7; no assay named
T2 construct: whole, on cells; also called mouse glypican-1
T2 sequence (looked up): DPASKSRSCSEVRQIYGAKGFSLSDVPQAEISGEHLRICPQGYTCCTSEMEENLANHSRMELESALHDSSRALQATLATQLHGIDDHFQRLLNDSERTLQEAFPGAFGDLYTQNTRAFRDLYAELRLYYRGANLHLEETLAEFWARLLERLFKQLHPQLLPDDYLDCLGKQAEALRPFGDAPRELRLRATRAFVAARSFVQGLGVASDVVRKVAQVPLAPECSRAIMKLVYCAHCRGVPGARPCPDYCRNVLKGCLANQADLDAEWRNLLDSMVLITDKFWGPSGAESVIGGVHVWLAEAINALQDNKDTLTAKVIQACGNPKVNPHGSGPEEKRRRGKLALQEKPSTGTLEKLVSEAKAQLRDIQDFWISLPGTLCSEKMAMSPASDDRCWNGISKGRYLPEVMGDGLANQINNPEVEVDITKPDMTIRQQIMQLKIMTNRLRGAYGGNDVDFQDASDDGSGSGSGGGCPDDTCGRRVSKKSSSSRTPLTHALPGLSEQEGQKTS

binding result [1]: binds
binding result [2]: binds
B1: anti-GPC-1-CAR (Type A or Type B not stated) (other)
VH: AVTLDESGGGLQTPGRALSLVCKASGFTFSRYAMYWVRQAPGKGLEFVAGIGNTGRYTGYGSAVKGRATISRDSGQSTVRLQLNNLRAEDTGNYYCAKSVSPYCCDAADIDAWGHGTEVIVSS
VL: ASTQPSSVSANPGETVKITCSGGSSGYAYGWYQQKSPGSAPVTLLYSNNNRPSDIPSRFSGSKSGSTATLTITGVQAEDEAVYFCGSVDSSSYAGIFGAGTTLTVL
notes: VH and VL in truth stand in one CAR chain with a (Gly4Ser)3 linker, a human CD28-derived part and the human CD3zeta intracellular domain; also called GPC-1 CAR gene of the invention; CAR of the anti-GPC-1-CAR-T cells
